Test results published in US20210324050A1 (VANDERBILT UNIVERSITY, published 2021).

T1: GII.4 Sydney 2012 virus-like particles (VLPs), based on strain AFV08795.1 (human norovirus GII.4 Sydney 2012, UniProt P54635 1-538)
T1 construct: also called GII.4 VLPs
T1 chain: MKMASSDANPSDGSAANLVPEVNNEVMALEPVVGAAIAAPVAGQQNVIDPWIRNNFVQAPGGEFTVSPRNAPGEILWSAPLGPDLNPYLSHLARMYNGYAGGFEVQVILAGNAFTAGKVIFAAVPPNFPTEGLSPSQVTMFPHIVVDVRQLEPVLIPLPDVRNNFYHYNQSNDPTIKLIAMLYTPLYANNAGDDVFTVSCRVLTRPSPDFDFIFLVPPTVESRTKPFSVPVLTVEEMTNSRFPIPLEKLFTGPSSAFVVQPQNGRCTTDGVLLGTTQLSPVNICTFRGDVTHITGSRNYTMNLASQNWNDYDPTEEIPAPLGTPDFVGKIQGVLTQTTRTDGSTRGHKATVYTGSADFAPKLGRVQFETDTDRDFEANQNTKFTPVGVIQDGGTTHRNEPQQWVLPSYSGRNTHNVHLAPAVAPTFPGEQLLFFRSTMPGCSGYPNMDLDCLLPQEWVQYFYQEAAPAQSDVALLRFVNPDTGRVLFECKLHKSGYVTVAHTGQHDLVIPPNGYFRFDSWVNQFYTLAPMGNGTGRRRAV

T2: GII.4 Houston 2002 (ABY27560.1) VLPs (human norovirus GII.4 Houston 2002, UniProt P54635 1-539)
T2 construct: also called GII.4 Houston 2002 antigen; GII.4 Houston VLPs
T2 chain: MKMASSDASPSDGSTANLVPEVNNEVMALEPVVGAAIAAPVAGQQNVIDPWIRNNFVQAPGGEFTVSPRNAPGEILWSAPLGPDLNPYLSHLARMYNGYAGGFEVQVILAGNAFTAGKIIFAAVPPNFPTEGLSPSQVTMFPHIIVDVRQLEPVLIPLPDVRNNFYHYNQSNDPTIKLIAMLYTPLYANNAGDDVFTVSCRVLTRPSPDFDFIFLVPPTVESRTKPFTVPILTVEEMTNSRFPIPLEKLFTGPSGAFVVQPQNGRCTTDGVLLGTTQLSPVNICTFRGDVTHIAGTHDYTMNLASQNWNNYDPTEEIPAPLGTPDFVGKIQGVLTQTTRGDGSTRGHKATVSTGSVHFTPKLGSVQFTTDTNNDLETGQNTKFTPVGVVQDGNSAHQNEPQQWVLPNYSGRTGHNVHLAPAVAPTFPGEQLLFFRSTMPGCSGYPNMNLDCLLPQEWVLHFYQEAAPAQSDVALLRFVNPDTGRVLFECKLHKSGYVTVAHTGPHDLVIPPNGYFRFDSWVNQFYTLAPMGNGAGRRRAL


How the values were obtained:
[1] = target: T1, GII.4 Sydney 2012 virus-like particles …; experiment: indirect ELISA on coated GII.4 Sydney 2012 VLPs
[2] = target: T2, GII.4 Houston 2002 (ABY27560.1) VLPs; experiment: ELISA on GII.4 Houston 2002 VLPs
[3] = target: GII.4 Sydney 2012 virus-like particles (VLPs), based on strain AFV08795.1 (human norovirus GII.4 Sydney 2012, UniProt P54635 1-538); experiment: indirect ELISA on coated GII.4 Sydney 2012 VLPs

Row | Binder | EC50 [1] | binding result [2] | EC50 [3]
1 | NORO-273A (antibody, V domains shown) VH: QVQLVQSGAEVKKPGASVKISCKASGYDFTSFPMHWVRLGPGQRLEWMGWISAANGNTKYSQKFQDRFTITRDTSASIVHMELSSLRSEDTAVYYCARGGYSSGLYRYSNYYYGMTVWGQGTLVTVSS VL: DIVMTQTPLSLSVTPGQPASISCKSSESLLHNDRKTYLFWYLQKPGQPPQLLIFQVSNRFSGVPDRFSGSGSGTDFTLRISRVEAEDVGIYYCLQTTQLPLTFGGGTKVEIK | 0.2 µg/mL | binds | –
2 | NORO-327A (antibody, V domains shown) VH: QVQLEVSGGGLVKPGGSLRLSCAASGFTFTDYYMSWIRQAPGKGLEWVAYISGIMSSTKYADSVKGRFTISRDNGKNSVYLQMNSLTAEDTAVYYCARERVEPPSAVTDFWGQGTLVTVSS VL: QSVLTQSPSVSGAPGQRVTISCTGTSSNIGAGYDVHWYQQFPGTAPKLLISHNTNRPSGVPDRFSGSKSGTSASLAITGLQAEDEADYYCQSFDSSLRGSRVFGGGTKLTVL | – | – | 0.6 µg/mL
3 | NORO-278 (antibody, V domains shown) VH: QVQLVESGGGVVQPGRSLRLSCAASGFTFSSYGMHWVRQAPGKGLEWVAVISYDGSNKYYADSVKGRFTISRDNSKNTLYLQMNSLRAEDTAVYYCAKVTIIAAADLLDYWGQGTLVTVSS VL: QSVLTQPPSVSGAPGQRVTISCTGSSSNIGAGYDVHWYQQLPGTAPKLLIYGNSNRPSGVPDRFSGSKSGTSASLAITGLQAEDEADYYCQSYDSSLSGPVVFGGGTKLTVL | 4 µg/mL | binds | –
4 | NORO-251A (antibody, V domains shown) VH: QVQLVESGGGVVQPGRSLRLSCAASGFTFRSYGIHWVRQAPGKGLEWVALISYDGSSKYYADSVKGRFTISRDNSKNTLYLQMNSLRSEDTAVYYCAKVRLTSYSIGWFSFDYWGQGTLVTVSS VL: QSVLTQPPSVSAAPGQKVTISCSGSSSNIANYYVSWYQQLPGRAPKLLIYDNNKRPSGIPDRISGSKSGTSATLGITGLQTGDEADYYCGTWDTSLSAWVFGGGTKLTVL | 0.9 µg/mL | binds | –
5 | NORO-256A (antibody, V domains shown) VH: QVQLVESGGGVVQAGRSLRLSCAASGFTFRSYGMHWVRQAPGKGLEWVAIISYDGGSKYYADSVKGRFTISRDNSKNTLYLQMNSLRVEDTALYYCAKDFLRVYSYGWHSFDIWGLGTLVTVSS VL: QSVLTQPPSVSAAPGQRVTISCSGSSSNIGTYYVSWYQHLPGTAPKLLIYDNDKRPSGIPDRFSASKSGTSATLDIAGLQTGDEADYYCGTWDLSLTAGWVFGGGTKLTVL | 0.9 µg/mL | binds | –
6 | NORO-263 (antibody, V domains shown) VH: QVQLVESGGGLVKPGGSLRLSCAASGFTLSDYYMSWIRQAPGKGLEWVAYISSSHTSTYYRDSVKGRFTISRDSAKKSLYLQMNSLRVEDTAIYYCARDWVGGRSAYSDHWGQGTLVTVSS VL: SYELTQPPSVSVSPGQTARITCSGDALPRRPAFWYQQKSGQAPVLVMYDDSKRPSGIPERFSGSSSGTVATLTISGAQVEDEADYHCYSTDSSGKERVFGGGTKLTVL | 0.6 µg/mL | binds | –
7 | NORO-303 (antibody, V domains shown) VH: QVQLVESGGGVVQPGRSLRLSCAASGFIFSSYAMHWVRQAPGKGLEWVAVMSYDGNNKYYADSVKGRFTISRDNSKNTLFLQMNSLRPEDTAVYYCARDCRVGWVFTYGMDVWGQGTLVTVSS VL: QSALTQPPSASGSPGQSVTISCTGTSSDVGGYNYVSWYQQHPGKAPKLMMYEISKRPSGVPIRFSGSKSGNTASLTVSGLQAEDEADYYCSSYAGTYNCVVFGGGTKLTVL | 0.5 µg/mL | binds | –
8 | NORO-315B (antibody, V domains shown) VH: QVQLVESGGGLVKPGGSLRLSCVASGFTFSDYYMTWFRQTPGRGLEWLSYISAIGGYTEYADSVKSRFIISRDNGKKSLYLQMNSLRAEDSGVYYCAREDCHGTSCYSGDWGQGTLVTVSS VL: QSVLTQPPSVSGAPGQRVTISCTGSSSNIGAGYDVHWYQQLPGTAPKLLIYHNTNRPSGVPDRFSGSKSGTSAYLTITGLQAEDEADYYCQSYDRSLSKSRVFSGGTKLTVL | 0.7 µg/mL | binds | –
9 | NORO-250B (antibody, V domains shown) VH: QVQLVESGGGLVKPGGSLTLSCAASGFTFSDYYMNWIRQAPGKRLEWVSYISGIMSSTNYADSVKGRFTISRDTAKKSVYLQMNSLRAEDTAVYYCARATSQGATSYYFDSWGQGTLVTVSS VL: QSVLTQPPSVSGAPGQRVTISCTGSSSNIGADYDVHWYQQLPGAAPRLLIYADINRPSGVPDRFSGSKSGTSASLAITGLQAEDEADYYCQSYDRSVSGSAVFGGGTKVTVL | – | binds | –
10 | NORO-310A (antibody, V domains shown) VH: EVQLVESGGGLVRPGESLRLSCVASGFSVSDNYMSWVRQAPGKGLQWVSVIYSGGTTFYTDSVKGRFTISRDKSKNTLFLQMNSLRAEDTAVYFCTRDPSQYYDSRGHYYQTFTPSFDSWGQGTLVTVSS VL: DIQMTQSPSVMSASVGDRVTITCRASQDISDYLAWFQQKPGKVPKRLIYAASSLQNGVPSRFSGSGSGTEFTLTISSLQPEDFATYYCLQHDTYPLTFGGGTKVEIK | 6.2 µg/mL | binds | –
11 | NORO-246A (antibody, V domains shown) VH: EVHLVESGGGLVKPGGSLRLSCAASGFTFSRYGMHWVRQAPGKGLEWVSSIVIRSDYKYYADSVKGRFTISRDNAKNSLYLQMNSLRADDTAVYYCARDLVEPGITPVGCDYWGRGTLVTVSS VL: SNELTQAPSVSVSPGQTARITCFGDALANQYSYWYQRKPGQAPVLVIYKDSERPSGIPQRFSASNSGTTVTLTITGVQAEDEADYFCQSADSTGIYKVFGGGTKLTVL | – | – | 0.2 µg/mL
12 | NORO-279A (antibody, V domains shown) VH: QVQLVESGGGVVQPGRSLRLSCAASGFTFTKYGMHWVRQAPGKGLEWVAFIAYDGSVKYYGDSAKGRFAISRDNPKNTVYLQMNSLRAEDTAVYYCAKVEIHYYSNSLLGMDVWGQGTLVTVSS VL: QSVLTQPPSASGTPGQRVTISCSGGNSNIGISYVYWYQHLPGTAPKLLISKNNLRPSGVPDRFSASKSGTSASLAISGLRSEDEAEYYCATLDINMTWVFGGGTKLTVL | 0.2 µg/mL | binds | –
13 | NORO-313.1 (antibody, V domains shown) VH: QVQLVESGGGLVKPGGSLRLSCAASGFTFSDFYMSWIRQAPGKGLEWVGYISSIAGATNYADSVKGRFTISRDSSKRSLYLQMNSLRVEDTAVYYCARMGRLELERRPHYYYPLDVWGQGTLVTVSS VL: not shown | – | binds | –
14 | NORO-296A (antibody, V domains shown) VH: QVQLVESGGGLVKPGGSLRLSCAASGFTFSEYYMSWVRQAPGKALEWVSYITSSFSSTSYADSVKGRFVISRDNAKNSLYLQMNSLRVEDTAVYYCARYGAEYGSRSFYFLDWGQGTLVTVSS VL: QSVLTQPPSVSGAPEQRVTISCTGSSSNIGAGYDVHWYQVLPGIAPKLLIYDNNKRPSGVPDRFSGSKSGTSASLAITGLQAEDEADYYCQSYDSRLSSNVVFGGGTKLTVL | – | binds | –
15 | NORO-232A.2 (antibody, V domains shown) VH: QVQLKQWGAGLLKSSETLSLTCAFNGNSFGAFYWSWIRLSPGKGLEWIGEVNYLGGADYNPSLKSRVTMSADTSKRQFSLSLKSVTAADTGVYFCARGRPHDYSPGSYSRPRRYYGLDVWGQGTTVTVSS VL: EIVLTQSPATLSLSPGDSATLSCRASQAVSTTYLAWYQQTRGQAPRLLIHGTYTRAIGIPDKFSGTGSGTDFTLTISGLAPEDFAVYYCQQYSSSPYTFGQGTKIEIT | – | – | 0.3 µg/mL
16 | NORO-123 (antibody, V domains shown) VH: QVQLVESGGGVVQPGRSLRLSCSTSGFTFSQYPMHWVRQAPGKGLEWVALISYDGMNKYYADSVRGRFTISRDNSENTQYLQMNSLRGDDTAVYYCARVTGDCTGNRCSYWAYYYYGLDVWGQGTLVTVSS VL: QSALTQPPSASGSPGQSVTISCTGTSSDVGGYKYVSWYQQHPGKAPKLMIYEVTRRPSGVPDRFSGSKSGNTAFLTVSGLQAEDEADYYCGSYAGSTTSGYVFGTGTKVIVL | 5.4 µg/mL | binds | –
